Measurements reported in publication PMC10397247.
Blank lines part the entries; values can stand above or below the binder they belong to.

Legend:
4H346-bN = biological target: T1, 4H346-bN; experiment: two-hybrid library CCNG1;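 note: natural log of median RNA to DNA barcode read ratio; higher means stronger binding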
T1 chain: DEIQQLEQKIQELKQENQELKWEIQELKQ

4H370-bA = biological target: T2, 4H370-bA; experiment: two-hybrid library CCNG1;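 note: natural log of median RNA to DNA barcode read ratio; higher means stronger binding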
T2 chain: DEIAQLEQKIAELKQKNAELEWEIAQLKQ

4H3926-bN = biological target: T3, 4H3926-bN; experiment: two-hybrid library CCNG1;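 note: natural log of median RNA to DNA barcode read ratio; higher means stronger binding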
T3 chain: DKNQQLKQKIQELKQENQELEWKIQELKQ

4H4073-bN = biological target: T4, 4H4073-bN; experiment: two-hybrid library CCNG1;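 note: natural log of median RNA to DNA barcode read ratio; higher means stronger binding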
T4 chain: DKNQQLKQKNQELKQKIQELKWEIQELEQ

4H457-bN = biological target: T5, 4H457-bN; experiment: two-hybrid library CCNG1;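 note: natural log of median RNA to DNA barcode read ratio; higher means stronger binding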
T5 chain: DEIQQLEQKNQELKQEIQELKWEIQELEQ

4H575-bN = biological target: T6, 4H575-bN; experiment: two-hybrid library CCNG1;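 note: natural log of median RNA to DNA barcode read ratio; higher means stronger binding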
T6 chain: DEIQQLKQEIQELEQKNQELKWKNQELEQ

4H683-bN = biological target: T7, 4H683-bN; experiment: two-hybrid library CCNG1
T7 chain: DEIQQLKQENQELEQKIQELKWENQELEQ

4H72-bH = biological target: T8, 4H72-bH; experiment: two-hybrid library CCNG1
T8 chain: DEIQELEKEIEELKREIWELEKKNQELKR

4H754-bN = biological target: T9, 4H754-bN; experiment: two-hybrid library CCNG1
T9 chain: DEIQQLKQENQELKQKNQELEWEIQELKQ

4H780-bN = biological target: T10, 4H780-bN; experiment: two-hybrid library CCNG1
T10 chain: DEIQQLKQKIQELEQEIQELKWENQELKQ

4H797-bN = biological target: T11, 4H797-bN; experiment: two-hybrid library CCNG1
T11 chain: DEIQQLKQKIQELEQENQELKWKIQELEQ

4H855-bN = biological target: T12, 4H855-bN; experiment: two-hybrid library CCNG1
T12 chain: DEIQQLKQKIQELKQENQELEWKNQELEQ

4H918-bN = biological target: T13, 4H918-bN; experiment: two-hybrid library CCNG1
T13 chain: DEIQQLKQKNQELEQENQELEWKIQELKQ

4H953-bN = biological target: T14, 4H953-bN; experiment: two-hybrid library CCNG1
T14 chain: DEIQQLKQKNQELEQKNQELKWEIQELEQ

4H968-bN = biological target: T15, 4H968-bN; experiment: two-hybrid library CCNG1
T15 chain: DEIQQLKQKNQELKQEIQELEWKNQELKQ

4H2162-AA = biological target: T16, 4H2162-AA; experiment: two-hybrid library CCmax
T16 chain: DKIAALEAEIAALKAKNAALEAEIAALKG

4H2253-AA = biological target: T17, 4H2253-AA; experiment: two-hybrid library CCmax; settings: mean of both orientations
T17 chain: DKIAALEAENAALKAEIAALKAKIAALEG

4H2274-AA = biological target: T18, 4H2274-AA; experiment: two-hybrid library CCmax; settings: mean of both orientations
T18 chain: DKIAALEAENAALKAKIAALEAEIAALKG

4H2330-AA = biological target: T19, 4H2330-AA; experiment: two-hybrid library CCmax; settings: mean of both orientations
T19 chain: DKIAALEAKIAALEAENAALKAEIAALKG

4H2389-AA = biological target: T20, 4H2389-AA; experiment: two-hybrid library CCmax; settings: mean of both orientations
T20 chain: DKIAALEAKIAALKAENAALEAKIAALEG

4H2438-AA = biological target: T21, 4H2438-AA; experiment: two-hybrid library CCmax; settings: mean of both orientations
T21 chain: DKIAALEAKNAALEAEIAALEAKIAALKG

4H2473-AA = biological target: T22, 4H2473-AA; experiment: two-hybrid library CCmax; settings: mean of both orientations
T22 chain: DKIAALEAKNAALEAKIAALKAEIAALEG

4H2649-AA = biological target: T23, 4H2649-AA; experiment: two-hybrid library CCmax; settings: mean of both orientations
T23 chain: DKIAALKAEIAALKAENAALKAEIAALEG

4H2698-AA = biological target: T24, 4H2698-AA; experiment: two-hybrid library CCmax; settings: mean of both orientations
T24 chain: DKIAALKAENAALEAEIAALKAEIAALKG

4H2725-AA = biological target: T25, 4H2725-AA; experiment: two-hybrid library CCmax; settings: mean of both orientations
T25 chain: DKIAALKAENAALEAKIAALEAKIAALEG

4H2865-AA = biological target: T26, 4H2865-AA; experiment: two-hybrid library CCmax; settings: mean of both orientations
T26 chain: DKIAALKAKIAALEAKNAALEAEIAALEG

4H3009-AA = biological target: T27, 4H3009-AA; experiment: two-hybrid library CCmax; settings: mean of both orientations
T27 chain: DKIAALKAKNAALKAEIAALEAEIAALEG

4H3016-AA = biological target: T28, 4H3016-AA; experiment: two-hybrid library CCmax; settings: mean of both orientations
T28 chain: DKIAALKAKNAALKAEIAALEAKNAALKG

4H310-AA = biological target: T29, 4H310-AA; experiment: two-hybrid library CCmax; settings: mean of both orientations
T29 chain: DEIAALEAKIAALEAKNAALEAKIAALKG

4H3120-AA = biological target: T30, 4H3120-AA; experiment: two-hybrid library CCmax; settings: mean of both orientations
T30 chain: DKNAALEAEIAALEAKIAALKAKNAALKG

4H3130-AA = biological target: T31, 4H3130-AA; experiment: two-hybrid library CCmax; settings: mean of both orientations
T31 chain: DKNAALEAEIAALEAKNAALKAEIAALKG

4H3165-AA = biological target: T32, 4H3165-AA; experiment: two-hybrid library CCmax; settings: mean of both orientations
T32 chain: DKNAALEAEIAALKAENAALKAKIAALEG

4H3381-AA = biological target: T33, 4H3381-AA; experiment: two-hybrid library CCmax; settings: mean of both orientations
T33 chain: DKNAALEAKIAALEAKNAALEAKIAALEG

4H3395-AA = biological target: T34, 4H3395-AA; experiment: two-hybrid library CCmax; settings: mean of both orientations
T34 chain: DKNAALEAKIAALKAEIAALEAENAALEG

4H3410-AA = biological target: T35, 4H3410-AA; experiment: two-hybrid library CCmax; settings: mean of both orientations
T35 chain: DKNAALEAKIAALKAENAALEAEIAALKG

4H3590-AA = biological target: T36, 4H3590-AA; experiment: two-hybrid library CCmax; settings: mean of both orientations
T36 chain: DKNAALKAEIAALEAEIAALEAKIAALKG

4H3697-AA = biological target: T37, 4H3697-AA; experiment: two-hybrid library CCmax; settings: mean of both orientations
T37 chain: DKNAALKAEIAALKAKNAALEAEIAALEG

4H3753-AA = biological target: T38, 4H3753-AA; experiment: two-hybrid library CCmax; settings: mean of both orientations
T38 chain: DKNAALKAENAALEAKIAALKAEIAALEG

4H3865-AA = biological target: T39, 4H3865-AA; experiment: two-hybrid library CCmax; settings: mean of both orientations
T39 chain: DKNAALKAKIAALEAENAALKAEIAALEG

4H458-AA = biological target: T40, 4H458-AA; experiment: two-hybrid library CCmax; settings: mean of both orientations
T40 chain: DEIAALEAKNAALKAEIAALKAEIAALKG

4H485-AA = biological target: T41, 4H485-AA; experiment: two-hybrid library CCmax; settings: mean of both orientations
T41 chain: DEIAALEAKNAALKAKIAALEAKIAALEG

4H536-AA = biological target: T42, 4H536-AA; experiment: two-hybrid library CCmax; settings: mean of both orientations
T42 chain: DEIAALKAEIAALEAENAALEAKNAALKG

4H570-AA = biological target: T43, 4H570-AA; experiment: two-hybrid library CCmax; settings: mean of both orientations
T43 chain: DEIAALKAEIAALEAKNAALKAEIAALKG

4H629-AA = biological target: T44, 4H629-AA; experiment: two-hybrid library CCmax; settings: mean of both orientations
T44 chain: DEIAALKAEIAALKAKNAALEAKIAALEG

4H710-AA = biological target: T45, 4H710-AA; experiment: two-hybrid library CCmax; settings: mean of both orientations
T45 chain: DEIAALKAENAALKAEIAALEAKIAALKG

4H745-AA = biological target: T46, 4H745-AA; experiment: two-hybrid library CCmax; settings: mean of both orientations
T46 chain: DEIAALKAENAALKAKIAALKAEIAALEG

4H797-AA = biological target: T47, 4H797-AA; experiment: two-hybrid library CCmax; settings: mean of both orientations
T47 chain: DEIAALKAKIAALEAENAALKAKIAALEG

4H850-AA = biological target: T48, 4H850-AA; experiment: two-hybrid library CCmax; settings: mean of both orientations
T48 chain: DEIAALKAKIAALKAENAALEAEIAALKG

4H891-AA = biological target: T49, 4H891-AA; experiment: two-hybrid library CCmax; settings: mean of both orientations
T49 chain: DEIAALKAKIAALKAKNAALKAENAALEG

4H909-AA = biological target: T50, 4H909-AA; experiment: two-hybrid library CCmax; settings: mean of both orientations
T50 chain: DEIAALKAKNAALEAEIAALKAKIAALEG

4H930-AA = biological target: T51, 4H930-AA; experiment: two-hybrid library CCmax; settings: mean of both orientations
T51 chain: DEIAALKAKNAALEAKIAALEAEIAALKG

4H94-AA = biological target: T52, 4H94-AA; experiment: two-hybrid library CCmax; settings: mean of both orientations
T52 chain: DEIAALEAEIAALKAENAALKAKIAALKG

interaction score (4H346-bN): 1.02
interaction score (4H370-bA): 0.693
interaction score (4H3926-bN): 1.53
interaction score (4H4073-bN): -0.58
interaction score (4H457-bN): -0.931
interaction score (4H575-bN): -0.652
interaction score (4H683-bN): 0.0158
interaction score (4H72-bH): 0.0876
interaction score (4H754-bN): -0.573
interaction score (4H780-bN): 0.0007
interaction score (4H797-bN): -0.125
interaction score (4H855-bN): -0.517
interaction score (4H918-bN): -0.654
interaction score (4H953-bN): -0.533
interaction score (4H968-bN): -0.647
Binder: DEIQQLEQKIQELKQENQELKWEIQELKQ [4H346-bN]

interaction score (4H2162-AA): 1.73
interaction score (4H2253-AA): -1.34
interaction score (4H2274-AA): -0.925
interaction score (4H2330-AA): -1.04
interaction score (4H2389-AA): -0.128
interaction score (4H2438-AA): -0.363
interaction score (4H2473-AA): -1.53
interaction score (4H2649-AA): -0.344
interaction score (4H2698-AA): -1.79
interaction score (4H2725-AA): -1.72
interaction score (4H2865-AA): -0.262
interaction score (4H3009-AA): -1.18
interaction score (4H3016-AA): -2.12
interaction score (4H310-AA): -0.523
interaction score (4H3120-AA): -1.44
interaction score (4H3130-AA): -0.375
interaction score (4H3165-AA): -0.865
interaction score (4H3381-AA): -1.58
interaction score (4H3395-AA): -0.899
interaction score (4H3410-AA): -0.231
interaction score (4H3590-AA): -0.841
interaction score (4H3697-AA): -0.752
interaction score (4H3753-AA): -1.93
interaction score (4H3865-AA): -1.59
interaction score (4H458-AA): -0.816
interaction score (4H485-AA): -1.06
interaction score (4H536-AA): -1.2
interaction score (4H570-AA): 0.778
interaction score (4H629-AA): -1.01
interaction score (4H710-AA): -1.09
interaction score (4H745-AA): -0.859
interaction score (4H797-AA): -1.49
interaction score (4H850-AA): 0.439
interaction score (4H891-AA): -1.78
interaction score (4H909-AA): -1.18
interaction score (4H930-AA): -1.36
interaction score (4H94-AA): -0.0378
Binder: DKIAALEAEIAALKAKNAALEAEIAALKG [4H2162-AA]
